B1: Serine/threonine-protein kinase tousled-like 1 (Caenorhabditis elegans), P34314 (parent)
chain: MSMLSMDGIVAGGGSSSGGGERSFVLEQKMFNTGPQNKALPTVQSSGSSSNHAPIVGESPLGTVSSTMATGDTGRVGNVTYMSSGMLGATQFMPQNSSHPSTSVMMQQVPPQNGGATRSSPTEMQQCMQAMSEDSIEMRDYNSGVHHMHPHQMQMQQQQQHHQQQYNMSYHNHQQQMQQMHYHQQQQQYQQQQAQHHQMYAPQIQQQQQQPQQQSQQQSAQQPQQSSAALQHVNESSNLSSAGSISDREPEQHGGTPQRPTAPQSSTATDKKTRKRRKAGPTEDQATPKQERKITEFMKVGGEVASGNSVARCLLTEYHQNQGSPKRQPAVQQNGSNSYDSQQQQPQMNQHEMQNSYWGVATPSLGVNNRGTPTPTQQQHYSSDSNSNSNQSPPGQGNQSGRMVRTIDEETQTDSSLSQANPQNADEVAKMNRIIEDHRRQIEELNSKNSLERRKNEASKETIKRLLIDKNQIERKALRDKTAADSPRIGCFKTTRTGDSFRDQWVDGWAFAEMDKKTEQINAERNEIASASALLKKRKPLGIGKEPKRPQAVNSQNDSNGMQPSTSSNTNGDDAIFRRPEEPKEIQYQEYIELDEIYKLRREHLRKEETDLSMEKERLEKEKQHHVRELKRASNESASQFNDHRLLHKRYLMLNLLGKGGFSEVWKAFDIEENRYVACKIHHVNKDWKEEKKANYVKHAMREKDIHKSLDHCRIVKQYDLLTIDNHSFCTVLEYVPGNDLDFYLKQNRSISEKEARSIIMQVVSALVYLNEKSTPIIHYDLKPANILLESGNTSGAIKITDFGLSKIMEGESDDHDLGIELTSQFAGTYWYLPPETFIVPPPKITCKVDVWSIGVIFYQCIYGKKPFGNDLTQQKILEYNTIINAREVSFPSKPQVSSAAQDFIRRCLQYRKEDRADVFELAKHELFRPRGAIRASVAGSLLLVIITLCQHSNRSEDRLCVSNV
partner: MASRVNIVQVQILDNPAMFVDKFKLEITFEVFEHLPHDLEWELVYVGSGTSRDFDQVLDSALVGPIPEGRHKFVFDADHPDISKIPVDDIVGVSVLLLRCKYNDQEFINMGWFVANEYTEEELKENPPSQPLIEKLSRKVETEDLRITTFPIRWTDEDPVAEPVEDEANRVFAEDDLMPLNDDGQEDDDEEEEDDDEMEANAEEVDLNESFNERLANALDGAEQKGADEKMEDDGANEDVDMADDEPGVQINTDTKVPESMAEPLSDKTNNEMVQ

Variants of: B1
Settings: with asf1_caeel unc-85, Q19326
S634A was tested, and the “effect of a mutation on the interaction” value was “increasing interaction”.
S634E was tested, and the “effect of a mutation on the interaction” value was “increasing interaction”.

From IntAct's records for PubMed 15916946
